The target in test [1] is T1, C subunit of human MUC1 expressed in HEK293T cells (HEK293T-v1) (human, UniProt P15941 1098-1255, limits assumed).
T1 construct: domain: C subunit of MUC1; also called MUC1-C
T1 sequence (looked up): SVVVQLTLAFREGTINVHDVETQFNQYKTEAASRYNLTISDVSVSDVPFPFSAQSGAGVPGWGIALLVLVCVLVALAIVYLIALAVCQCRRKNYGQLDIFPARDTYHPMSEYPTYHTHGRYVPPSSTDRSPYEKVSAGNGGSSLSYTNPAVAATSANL
The experiment in a line: flow cytometry (PE MFI, corrected to G03 at 380 ug/mL) on HEK293T-v1 cells expressing MUC1 C subunit. How it is done:
(§1) The soluble scFv prepared in Example 1 was diluted 5-fold to prepare a total of 8 serial dilutions. Each serial dilution was 380 μg/mL, 76 μg/mL, 15.2 μg/mL, 3.04 μg/mL, 0.608 μg/mL, 0.1216 μg/mL, 0.02432 μg/mL, 0.004864 μg/mL. A buffer used in soluble scFv dilution and cell washing was PBS containing 2% FBS and 10 mM EDTA. Four kinds of cells were prepared at a density of 1×10⁶/mL, respectively, and put in a 96 well U-bottom cell culture plate at a density of 1×10⁵/100 μl/well, followed by centrifugation at 1500 RPM for 5 minutes. The soluble scFv prepared previously was treated in an amount of 50 μl/well. The cells were left at 4° C. for 1 hour. 150 μl/well of the cell washing buffer was added thereto and then mixed, followed by centrifugation at 1500 RPM for 5 minutes. The supernatant was discarded, and 200 μl/well of the cell washing buffer was added thereto and then mixed, followed by centrifugation at 1500 RPM for 5 minutes. A goat anti-human IgG Fc-biotin antibody (Invitrogen, A18821) was diluted 500-fold, and 50 μl/well thereof was treated. The cells were left at 4° C. for 20 minutes. 150 μl/well of the cell washing buffer was added thereto and then mixed, followed by centrifugation at 1500 RPM for 5 minutes. The supernatant was discarded, and 200 μl/well of the cell washing buffer was added thereto and then mixed, followed by centrifugation at 1500 RPM for 5 minutes. PE-Streptavidin (BD Pharmigen, 554061) was diluted 1000-fold, and 50 μl/well thereof was treated. The cells were left at 4° C. for 20 minutes. 150 μl/well of the cell washing buffer was added thereto and then mixed, followed by centrifugation at 1500 RPM for 5 minutes. The supernatant was discarded, and 200 μl/well of the cell washing buffer was added thereto and then mixed, followed by centrifugation at 1500 RPM for 5 minutes. 80 μl/well of the cell washing buffer was added and mixed, followed by flow cytometry.
The affinity of the soluble scFv to the mucin1-expressing cells was confirmed by PE MFI values from the results of the flow cytometry. Each cell line without soluble scFv was stained with another fluorescent antibody (Goat anti-human IgG Fc-biotin antibody, PE-Streptavidin), which was used as a negative control value, and each cell line was treated with G03 at a concentration of 380 μg/mL, which was used as a positive control value, and MFI value was corrected as follows: […]
A general note: A flow cytometer gives signals particle by particle.

Test [2] deals with T1, C subunit of human MUC1 expressed in …. The experiment in a line: flow cytometry (PE MFI, corrected to G03 at 380 ug/mL) on HEK293T-v1 cells expressing MUC1 C subunit; 293T-v1 cells. As for the experimental part:
as §1, with “PE-Streptavidin (BD Pharmigen, 554061) was diluted 1000-fold, and 50 μl/well thereof was treated. The cells were left at 4° C. for 20 minutes. 150 μl/well of the cell washing buffer was added thereto and then mixed, followed by centrifugation at 1500 RPM for 5 minutes. The supernatant was discarded, and 200 μl/well of the cell washing buffer was added thereto and then mixed, followed by centrifugation at 1500 RPM for 5 minutes. 80 μl/well of the cell washing buffer was added and mixed, followed by flow cytometry.” left out

B1: scFv 2447_2H08 (scFv)
scFv: EVQLVQSGAEVKKPGASVKVSCKASGYTFTNYGISWVRQAPGQGLEWMGWISAYNGNTNYAQKLQGRVTMTTDTSTSTAYMELRSLRSDDTAVYYCARDPHILTGYYRGGWFDPWGQGTTVTVSSGGGGSGGGGSGGGASSYELTQDPAVSVALGQTVTITCQGDSLRTSYAGWLQQKPGQAPVLVLYGKTSRPSGIPDRFSGSTSGNTASLTITGAQAEDEAEYFCHSRDSNDNYLEVVFGGGTKLTVL
By EC50 is commonly meant the concentration needed to bring the measured effect to its halfway point. As to B1, in test [1], the EC50 was 21.7 µg/mL.

B2: scFv 2445_1F09 (scFv)
scFv: EVQLLETGGGLIQPGGSLRLSCAASGFTVSSNYMSWVRQAPGKGLEWVSVIYSGGSTYYADSVKGRFTISRDNSKNTLYLQMNSLRAEDTAVYYCARDRGWNHGMDVWGQGTLVTVSSGGGGSGGGGSGGGASQSGLTQPPSASGTPGQRVTISCSGGSSEVGSRYVSWYQQLPGTAPRLLIYKNDRRPSGVPDRFSGSKSGSSASLAISGLRSEDEADYYCAAWDDSLNGYVFGTGTKLTVL
The molecule B2 displayed an EC50 in test [2] greater than 380 µg/mL.

B3: scFv 2447_3C08 (scFv)
scFv: EVQLLESGGGLVQPGGSLRLSCAASGFTFDDYAMHWVRQAPGKGLEWVSGISWNSGSIGYADSVKGRFTISRDNAKNSLYLQMNSLRAEDTALYYCAKDRGSGYEGNYYGMDVWGQGTLVTVSSGGGGSGGGGSGGGASSYELTQDPAVSVALGQTVRITCQGDSLRSYYASWYQQKPGQAPVLVIYGKNNRPSGIPDRFSGTTSGNTASLTITGAQAEDEADYYCNSRDSSGNHYVFGTGTKVTVL
Molecule B3 had an EC50 in test [1] of 1.38 µg/mL.

B4: scFv 2447_3H02 (scFv)
scFv: EVQLLESGGGLVQPGRSLRLSCAASGFTFDDYAMHWVRQAPGKGLEWVSGISWDSGSIGYADSVKGRFTISRDNAKNSLYLQMNSLRAEDTALYYCAKDVSSGWYWYAFDIWGQGTLVTVSSGGGGSGGGGSGGGASSYELTQDPAVSVALGQTVRITCQGDILRSYYASWYQQKPGQAPVLVIYGKNNRPSGIPDRFSGSSSGNTASLTITGAQAEDEADYYCNSRDSSGNRVVFGGGTKLTVL
notes: also called #9
Turning to B4, in test [1], a half-maximal effect (EC50) was put at 1.41 µg/mL.

B5: scFv 2447_3B07 (scFv)
scFv: QVQLVESGGVVVQPGGSLRLSCAASGFTFDDYAMHWVRQAPGRGLEWVSLTSWDGGSTYYADSVKGRFTISRDNSKNSLYLQMNSLRAEDTALYYCAKDHSSGWYNGGMDVWGQGTMVTVSSGGGGSGGGGSGGGASSYELTQDPAVSVALGQTVRITCQGDSLRSYYASWYQQKPGQAPVLVIYGKNNRPSGIPDRFSGSSSGNTASLTITGAQAEDEADYYCNSRDSSGNHVVFGGGTKLTVL
In test [1], B5 displayed an EC50 of 3.86 µg/mL.

B6: scFv 2447_3H08 (scFv)
scFv: EVQLLESGGGLVQPGRSLRLSCAASGFTFDDYAMHWVRQAPGKGLEWVSGISWNSGSIDYADSVKGRFTISRDNSKNTLYLQMNSLRAEDTAVYYCARDRSSGWYTGSFDYWGQGTLVTVSSGGGGSGGGGSGGGASSYELTQDPAVSVALGQTVRITCQGDSLRSYYASWYRQKPGQAPVLVIYGKNNRPSGIPDRFSGSSSGNTASLTIIGAQAEDEADYYCQSRDSSDNRVLFGGGTKVTVL
notes: also called #10
In turn, B6 had an EC50 in test [1] of 2.57 µg/mL.

For the origin of these results see US20250281533A1 (LG CHEM, published 2025).
